Where “and” joins values, the source holds several entries; their conditions need not be identical. Identical values can stand only once.
Columns and labels:
[1] = biological target: T1, recombinant human CD137 receptor protein (human, UniProt Q07011 24-186); assay: ELISA, recombinant human CD137 protein coated, antibody titrated
T1 construct: Coated on ELISA plates; also called recombinant human CD137 protein
Method: The human or cynomolgus monkey CD137 receptor protein was diluted in DPBS to 1 μg/mL, and then coated onto an ELISA plate (Corning, Catalog number: 9018, high binding) with a volume of 100 μL (0.1 μg) or 50 μL (0.05 μg) per well, and incubated at 4° C. overnight. The plate was decanted and washed once; assay diluent was added 200 μL/well. After a one-hour incubation at room temperature, the plate was washed with PBST one time. […] The plate was incubated one hour at room temperature and then washed three times with PBST. Goat anti-human IgG-H+L HRP conjugated at 1:100,000 dilution was added to the plate at 100 μL/well. The plate was then incubated one hour at room temperature followed by washing with PBST four times. The TMB substrate solution was added at 100 μL/well. The color was allowed to develop for 15 minutes, and was stopped with 100 μL/well 2N H₂SO₄. Absorbance at 450 nm and 620 nm was determined by a Tecan F200 Pro reader.
Graphpad 7.0, “[Agonist] vs. response—Variable slope (four parameters)” was used to plot the binding data and calculate binding EC₅₀ values.

[2] = biological target: T2, human CD137 on cells (human, UniProt Q07011 24-255); assay: cell-based or functional assay
[3] = biological target: T3, human LAG-3 on CHO cells (human, UniProt P18627 23-525); assay: flow cytometry on CHO cells over-expressing the target
T3 construct: whole, on cells
T3 sequence (looked up): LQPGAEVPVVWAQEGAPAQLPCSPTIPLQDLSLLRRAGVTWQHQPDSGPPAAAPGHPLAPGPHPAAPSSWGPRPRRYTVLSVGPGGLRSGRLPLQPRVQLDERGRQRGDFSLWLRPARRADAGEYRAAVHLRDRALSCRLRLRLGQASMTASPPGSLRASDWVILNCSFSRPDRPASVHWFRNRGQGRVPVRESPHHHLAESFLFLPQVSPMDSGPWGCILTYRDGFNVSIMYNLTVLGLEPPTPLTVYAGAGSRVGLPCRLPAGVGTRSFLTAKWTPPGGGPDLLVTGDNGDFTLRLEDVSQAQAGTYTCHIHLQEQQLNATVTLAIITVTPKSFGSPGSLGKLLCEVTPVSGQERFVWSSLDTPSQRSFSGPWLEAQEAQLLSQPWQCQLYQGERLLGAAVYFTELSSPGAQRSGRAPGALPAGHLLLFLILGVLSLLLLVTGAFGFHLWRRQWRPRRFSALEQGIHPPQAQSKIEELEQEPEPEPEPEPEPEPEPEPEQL
Method: (§1) The cells were resuspended in ice cold assay buffer at 2*10\hat{ }6/mL and transferred to 96-well V-bottom plate with 100 μL/well. […] The plate was incubated in the dark for 2 hours at 4° C. The cells were washed 3 times by centrifugation at 1000 g for 3 min and resuspended in 100 μL ice cold assay buffer containing goat F(ab′)₂ anti-human IgG-Fc (PE) or PE goat anti-mouse IgG antibody. The plate was incubated in the dark for another 1 hour at 4° C. The cells were washed 2 times by centrifugation at 1000 g for 3 min and resuspended in ice cold assay buffer containing 2% PFA and analyzed on the flow cytometer immediately.

[4] = biological target: T4, human CD20 on CHO cells (human, UniProt P11836 1-297); assay: as above
T4 construct: whole, on cells
T4 sequence (looked up): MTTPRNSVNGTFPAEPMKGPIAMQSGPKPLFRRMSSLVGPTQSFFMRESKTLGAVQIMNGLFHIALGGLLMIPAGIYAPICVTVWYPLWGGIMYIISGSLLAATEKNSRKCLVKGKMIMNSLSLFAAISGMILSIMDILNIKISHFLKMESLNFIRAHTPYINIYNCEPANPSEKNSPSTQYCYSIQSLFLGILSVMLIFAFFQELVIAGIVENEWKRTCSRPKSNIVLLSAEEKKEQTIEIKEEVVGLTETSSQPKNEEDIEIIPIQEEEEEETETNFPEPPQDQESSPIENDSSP
Method: as §1

[5] = biological target: T1, recombinant human CD137 receptor protein; assay: ELISA, huCD137 coated, clone 3712 titrated; full sigmoid, plateau about 1.5
Method: For the data shown in FIGS. 16C-D, chimeric CD137 receptor protein samples were diluted in DPBS to 5 μg/mL and then coated onto an ELISA plate (Corning, Catalog number: 9018, high binding) at 50 μL (0.25 μg) per well, and incubated at 4° C. overnight. The plate was decanted and washed once; assay diluent was added at 200 μL/well. After a 1-hour incubation at room temperature, the plate was washed with PBST one time. […] The plate was incubated 1 hour at room temperature and then washed three times with PBST. Goat anti-human IgG-H+L HRP-conjugated at 1:100,000 dilution or goat anti-mouse IgG (H+L) secondary antibody, HRP, 10 at 1:50,000 dilution was added to the plate at 100 μL/well. The plate was incubated 1 hour at room temperature followed by washing with PBST four times. The TMB substrate solution was added 100 μL/well. The color was permitted to develop for 15 minutes and then 100 μL/well 2N H2SO4 was added to terminate the reaction. Absorbance at 450 nm and 620 nm was determined by a Tecan F200 Pro reader.

[6] = biological target: T5, cynomolgus monkey CD137 on cells (cynomolgus monkey, UniProt A9YYE7 24-254); assay: flow cytometry on CHO cells over-expressing cynomolgus CD137; average, n=6
T5 construct: whole, on cells; also called CHO-cynomolgus monkey CD137
T5 sequence (A9YYE7 entry or part of it): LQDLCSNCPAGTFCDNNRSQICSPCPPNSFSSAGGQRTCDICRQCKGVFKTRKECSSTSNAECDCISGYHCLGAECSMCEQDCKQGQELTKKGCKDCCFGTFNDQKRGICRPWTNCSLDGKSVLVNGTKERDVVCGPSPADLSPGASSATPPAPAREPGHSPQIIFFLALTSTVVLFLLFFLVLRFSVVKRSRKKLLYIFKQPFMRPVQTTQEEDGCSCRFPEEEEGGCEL
Method: (§2) CHO cells over-expressing human or cynomolgus monkey CD137 and CHO parental cells were harvested by centrifugation at 1000 g for 3 minutes. The cells were resuspended in ice cold assay buffer at 2*10\hat{ }6/mL and transferred to 96-well V-bottom plate with 100 μL/well. […] The plate was mixed and incubated in the dark for 2 hours at 4° C. The cells were washed 3 times by centrifugation at 1000 g for 3 min and resuspended in ice cold assay buffer containing goat F(ab′)₂ anti-human IgG-Fc (PE), 100 μL/well. The plate was incubated in the dark for another 1 hour at 4° C. The cells were washed 2 times by centrifugation at 1000 g for 3 min and resuspended in ice cold assay buffer containing 2% PFA. The cells were then subjected to the flow cytometer immediately.
(§3) Mean fluorescence intensity (MFI) was calculated from the total cell population in the FCM experiments. Graphpad 7.0, “[Agonist] vs. response—Variable slope (four parameters)” was used to plot the binding MFI in dose response and to calculate FCM binding EC₅₀ values.

[7] = biological target: T2, human CD137 on cells; assay: flow cytometry, cellular CD137; human CD137
Method: as §2, §3
Target sequence in this assay (Q07011 24-255): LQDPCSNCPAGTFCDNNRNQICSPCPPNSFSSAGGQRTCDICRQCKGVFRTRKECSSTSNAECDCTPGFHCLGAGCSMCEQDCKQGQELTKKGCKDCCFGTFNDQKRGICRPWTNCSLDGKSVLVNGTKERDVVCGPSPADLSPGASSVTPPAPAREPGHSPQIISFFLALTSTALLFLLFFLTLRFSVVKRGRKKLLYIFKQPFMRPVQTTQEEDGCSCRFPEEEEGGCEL

- EC50 (read off the curve) [1]: ~50 ng/mL
- IFN-γ secretion of human CD8+ T cells co-cultured with CHO-K1-huFcγRIIB cells and OKT3; average EC50, n=12 [2]: 30.6 ng/mL and ~0.21 nM
- IL-8 secretion of CD137 reporter cells (GS-H2-huCD137) co-cultured with CHO-K1-huFcγRIIB cells; average EC50, n=6 [2]: 44.4 ng/mL and ~0.31 nM
- binding result [3]: no binding
- binding result [4]: no binding
- EC50 [5]: 0.0572 µg/mL
- EC50 [6]: 0.26 nM and 0.0369 µg/mL
- EC50 [7]: ~0.3 nM
B1: Clone 3712-IgG1v (IgG1v/kappa) (antibody)
heavy: QVQLVQSGAEVKKPGASVKVSCKASGYTFAGFEMHWVRQAPGQGLEWMGAIDPKTGGTDYNQKFKDRVTMTRDTSISTAYMELSRLRSDDTAVYYCARDLGYFDVWGQGTLVTVSSASTKGPSVFPLAPSSKSTSGGTAALGCLVKDYFPEPVTVSWNSGALTSGVHTFPAVLQSSGLYSLSSVVTVPSSSLGTQTYICNVNHKPSNTKVDKKVEPKSCDKTHTCPPCPAPELLGPSVFLFPPKPKDTLMISRTPEVTCVVVDVEHEDPEVKFNWYVDGVEVHNAKTKPREEQYNSTYRVVSVLTVLHQDWLNGKEYKCKVSNKALPAPIEKTISKAKGQPREPQVYTLPPSREEMTKNQVSLTCLVKGFYPSDIAVEWESNGQPENNYKTTPPVLDSDGSFFLYSKLTVDKSRWQQGNVFSCSVMHEALHNHYTQKSLSLSPGK
light: DIQMTQSPSSLSASVGDRVTITCRASQDIRSNLNWYQQKPGGAVKLLIYYTSRLHSGVPSRFSGSGSGTDYTLTISSLQPEDFATYFCQQSEKLPRTFGGGTKVEIRRTVAAPSVFIFPPSDEQLKSGTASVVCLLNNFYPREAKVQWKVDNALQSGNSQESVTEQDSKDSTYSLSSTLTLSKADYEKHKVYACEVTHQGLSSPVTKSFNRGEC
notes: copies: 2 + 2
